Laboratory results as given in the DeepSol protein solubility set.

assay: soluble on expression in E. coli; label from the status in PepcDB or PDB records

| Sequence | soluble on expression in E. coli |
| --- | --- |
| SSGHKCYPWDLQDRYAQDKSVVNKMQQKYWETKQAFIKATGKKEDEHVVASDADLDAKLELFHSIQRTCLDLSKAIVLYQKRICFLSQEENELGKFLRSQGFQDKTRAGKMMQATGKALCFSSQQRLALRNPLCRFHQEVETFRHRAISDTWLTVNRMEQCRTEYRGALLWMKDVSQELDPDLYKQMEKFRKVQTQVRLAKKNFDKLKMDVCQKVDLLGASRCNLLSHMLATYQTTLLHFWEKTSHTMAAIHESFKGYQPYEFTTLKSLQDPMKKLVEKEEKKKINQQESTDAAVQEPSQLISLEEENQRKESSSFKTEDGKSILSALDKGSTHTACSGPIDELLDMKSEEGACLGPVAGTPEPEGADKDDLLLLSEIFNASSLEEGEFSKEWAAVFGDGQVKEPVPTMALGEPDPKAQTGSGFLPSQLLDQNMKDLQASLQEPAKAASDLTAWFSLFADLDPLSNPDAVGKTDKEHELLNA | soluble |
| SSGLSFSEMEGCRNLLGLLDNDEIMALCDTVTNRLVQPQDRQDAVHAILAYSQSAEELLRRRKVHREVIFKYLATQGIVIPPATEKHNLIQHAKDYWQKQPQLKLKETPEPVTKTEDIHLFQQQVKEDKKAEKVDFRRLGEEFCHWFFGLLNSQNPFLGPPQDEWGPQHFWHDVKLRFYYNTSEQNVMDYHGAEIVSLRLLSLVKEEFLFLSPNLDSHGLKCASSPHGLVMVGVAGTVHRGNTCLGIFEQIFGLIRCPFVENTWKIKFINLKIMGESSLAPGTLPKPSVKFEQSDLEAFYNVITVCGTNEVRHNVKQASDSGTGDQV | soluble |
| SSKKYKLSEIHHLHPEYVRVSEHFKASMKNFKIEKIKKIENSELLDKFTWKKSQMKEEGKLLFYATSRAYVESICSNNFDSFLHETHENKYGKGIYFAKDAIYSHKNCPYDAKNVVMFVAQVLVGKFIEGNITYTSPPPQFDSCVDTRSNPSVFVIFQKDQVYPQYVIEYTED | soluble |
| SSNNFNYGAYHSLEAIYHEMDNIAADFPDLARRVKIGHSFENRPMYVLKFSTGKGVRRPAVWLNAGIHSREWISQATAIWTARKIVSDYQRDPAITSILEKMDIFLLPVANPDGYVYTQTQNRLWRKTRSRNPGSSCIGADPNRNWNASFAGKGASDNPCSEVYHGPHANSEVEVKSVVDFIQKHGNFKGFIDLHSYSQLLMYPYGYSVKKAPDAEELDKVARLAAKALASVSGTEYQVGPTCTTVYPASGSSIDWAYDNGIKFAFTFELRDTGTYGFLLPANQIIPTAEETWLGLKTIMEHVRDNLY | soluble |
| STAGKVIKCKAAVLWELKKPFSIEEVEVAPPKAHEVRIKMVAAGICRSDEHVVSGNLVTPLPVILGHEAAGIVESVGEGVTTVKPGDKVIPLFTPQCGKCRICKNPESNYCLKNDLGNPRGTLQDGTRRFTCSGKPIHHFVGVSTFSQYTVVDENAVAKIDAASPLEKVCLIGCGFSTGYGSAVKVAKVTPGSTCAVFGLGGVGLSVVMGCKAAGAARIIAVDINKDKFAKAKELGATECINPQDYKKPIQEVLKEMTDGGVDFSFEVIGQLDTMMASLLCCHEACGTSVIVGVPPDSQNLSINPMLLLTGRTWKGAIFGGFKSKESVPKLVADFMAKKFSLDALITNVLPFEKINEGFDLLRSGKSIRTVLTF | soluble |
| STFVAKDGTQIYFKDWGSGKPVLFSHGWLLDADMWEYQMEYLSSRGYRTIAFDRRGFGRSDQPWTGNDYDTFADDIAQLIEHLDLKEVTLVGFSMGGGDVARYIARHGSARVAGLVLLGAVTPLFGQKPDYPQGVPLDVFARFKTELLKDRAQFISDFNAPFYGINKGQVVSQGVQTQTLQIALLASLKATVDCVTAFAETDFRPDMAKIDVPTLVIHGDGDQIVPFETTGKVAAELIKGAELKVYKDAPHGFAVTHAQQLNEDLLAFLKRGSHHHHHH | soluble |
| STLYEKLGGTTAVDLAVDKFYERVLQDDRIKHFFADVDMAKQRAHQKAFLTYAFGGTDKYDGRYMREAHKELVENHGLNGEHFDAVAEDLLATLKEMGVPEDLIAEVAAVAGAPAHKRDVLNQ | soluble |
| STMLRVRSRDGLERVSVDGPHITVSQLKTLIQDQLQIPIHNQTLSTNRNLLLAKSPSDFLAFTDMADPNLRISSLNLAHGSMVYLAYEGERTIRGGPAVTPAGSFGRKMTVEDLIARQMRVGRQEKAHCDSVSFDRDCANAFQHFVNESLAFAVKRGGFMYGNVSEDGQVEVNFIYEPPQQGMEDNLILMRDSEEEKRVDAIALGLGMRRVGFIFNQTVTQDKKEYTLSNVEVLLAAQLHAESELKEWVTAVVKLEINEDGGADVHFEPFQMSDMCVRLFKEGWFETEIGPEDDPKLSKLKKEVVVGVKDVKEVDNDFFLVLVKILDHQGPLSCTFPIENRNTQTTMRALKTHMERARSLPFVKRISDFHLLLFVAQFLDVSSDVPALAECVRLQSHVPEGYELLIDSMANTS | soluble |
| STNVFIMGHVNPDIDCIGGAIGLYSVLSSKVDGDVHIVLDDTSSSVEGIVNRLVENYDEYKNVFMRSSDCIELIDQGSILILDDVNSRNYVLSEKILEEISKVVVIDHHRRAANYIKDTILSYIESYASSTSELVTEMIQYMDENHKLKPIEAEALLAGIVVDTKNFSFKTGVRTFEAAAFLRKNGADTIEIKKLFSNDL | not soluble |
| STREHPPEPLDFFIWTVEDVGSWLEEINLGGYRQIFKENGVNGEYLESMSVFTTEQILHFIRRHHMKWGDFITLCKELRRIKVACLKGEQRVRRPWWAPSCLSVVFVKAAKRNRQSRVVSLKLES | soluble |
| STSAAQQGRNQNGEYNILDSIIAETRLSPDDEAYDIAKRGVSAFIEELLKPQNDGEPVKKAMVDRMIAEIDAKLSTQMDEILHHPDFQALESAWRGLQLLVDRTNFRENIKIEILSVSKQDLLDDFEDSPEVMQSGLYKHIYTAEYGQFGGQPVGAIIANYYMSPSSPDVKLMQYVSSVACMAHAPFVAAAGPKFFGLESFTGLPDLKDLKDHFEGPQFAKWQSFRQSEDSRYVALTVPRFLLRTPYDPEENPVKSFAYKETVANSHEHYLWGNTAYAFGTKLTDSFAKYRWCPNIIGPQSGGAVEDLPLHHFESMGEIETKIPTEVLVSDRREYELAEEGFISLTMRKGSDNAAFFSASSVQKPKFFGISAEGKAAELNYKLGTQLPYMMIVNRLAHYLKVLQREQLGSWKERTDLELELNKWIRQYVADQENPSAEVRGRRPLRAAQIIVSDVEGEPGWYRVSLNVRPHFKYMGADFTLSLVG | not soluble |
| STTIYDLKKQKDKLLKFYAESDEQILMKNRKTLHKAKNEDLDRVLKEWIRQRRSEHMPLNGMLIMKQAKIYHNELKIEGNCEYSTGWLQKFKKRHGIKFLKTCGNKASAGHEATEKFTGKFSNDDEQDGNFEGFSMSSEKKIMSDLLTYTKNIHPETVSKLEEEDIKDVFNSNNEAPVVHSLSNGEVTKMVLNQDDHDDNDNEDDVNTAEKVPIDDMVKMCDGLIKGLEQHAFITEQEIMSVYKIKERLLRQKASLMRQMTLKETFKKAIQRNASSSLQDPLLGPSTASDASSHLKIK | soluble |
| SVFADQVGVQVIGVNDFHGALDNTGTANMPDGKVANAGTAAQLDAYMDDAQKDFKQTNPNGESIRVQAGDMVGASPANSGLLQDEPTVKNFNAMNVEYGTLGNHEFDEGLAEYNRIVTGKAPAPDSNINNITKSYPHEAAKQEIVVANVIDKVNKQIPYNWKPYAIKNIPVNNKSVNVGFIGIVTKDIPNLVLRKNYEQYEFLDEAETIVKYAKELQAKNVKAIVVLAHVPATSKNDIAEGEAAEMMKKVNQLFPENSVDIVFAGHNHQYTNGLVGKTRIVQALSQGKAYADVRGVLDTDTQDFIETPSAKVIAVAPGKKTGSADIQAIVDQANTIVKQVTEA | not soluble |
| SVGREKELSIHFVPGSCRLVEEEVNIPNRRVLVTGATGLLGRAVHKEFQQNNWHAVGCGFRRARPKFEQVNLLDSNAVHHIIHDFQPHVIVHCAAERRPDVVENQPDAASQLNVDASGNLAKEAAAVGAFLIYISSDYVFDGTNPPYREEDIPAPLNLYGKTKLDGEKAVLENNLGAAVLRIPILYGEVEKLEESAVTVMFDKVQFSNKSANMDHWQQRFPTHVKDVATVCRQLAEKRMLDPSIKGTFHWSGNEQMTKYEMACAIADAFNLPSSHLRPITDSPVLGAQRPRNAQLDCSKLEILGIGQRTPFRIGIKESLWPFLIDKRWRQTVFH | soluble |
| SVKRKSSEGQEQDGGRGIPLPIQTFLWRQTSAFLRPKLGKQYEASCVSFERVLVENKLHGLSPALSEAIQSISRWELVQAALPHVLHCTATLLSNRNKLGHQDKLGVAETKLLHTLHWMLLEAPQDCNNERFGGTDRGSSWGGSSSAFIHQVENQGSPGQPCQSSSNDEEENNRRKIFQNSMATAELFVFLFAPLVHRIKESDLTFRLASGLVIWQPMWEHRQPGVSGFTALVKPIRNIITAKRSSPINSQSRTCESPNQDARHLEGLQVVRETFQSDSISPKATISGCHRGNSFDGSLSSQTSQERGPSHSRSTFHFPP | soluble |
| SVLLSRELHPVAPLLDNLISALNKVYQRKGVNISMDISPEISFVGEQNDFVEVMGNVLDNACKYCLEFVEISARQTDDHLHIFVEDDGPGIPHSKRSLVFDRGQRADTLRPGQGVGLAVAREITEQYAGQIIASDSLLGGARMEVVFGRQHPTQKEE | soluble |
| TAPSQVLKIRRPDDWHLHLRDGDMLKTVVPYTSEIYGRAIVMPNLAPPVTTVEAAVAYRQRILDAVPAGHDFTPLMTCYLTDSLDPNELERGFNEGVFTAAKLYPANAVTNSSHGVTSVDAIMPVLERMEKIGMPLLVHGEVTHADIDIFDREARFIESVMEPLRQRLTALKVVFEHITTKDAADYVRDGNERLAATITPQHLMFNRNHMLVGGVRPHLYCLPILKRNIHQQALRELVASGFNRVFLGTDSAPHARHRKESSCGCAGCFNAPTALGSYATVFEEMNALQHFEAFCSVNGPQFYGLPVNDTFIELVREEQQVAESIALTDDTLVPFLAGETVRWSVKQ | soluble |
| TDNFSWSTNLNFSYNDNKIKELVDDLPNGLTLTDFGGAKVILKEGGHYGDLYVRHLMRDENGKPLQNEKGEPIVSGDSMDELEYAGNMNAKVNMGWTNTFRYKDFSLSFLIDAKFGGKVISMTEAALDGWGVSKRSGEARDAGGITVDGVKFDADKYYRTTGNNNFNSPYAVENYVYDATNIRLREVTFGYTFRNLLGAGKNLTAAIIGRNLFFFHKDAPMDPDVSAGTGNGIQGVDMFALPTSRSFGLNLKLNF | not soluble |
| TEDFRWKTTFNYSQNRNKVVELAPNYTSFVYGDPGFSMAYMMQIKEGGSLGDIYGNTFARDEQGKIKVSDEGKPISESGNKTYLGNCNPDFLLSWANTFTYKGFSLYFLIDMRKGGDVMSLTQATLDGRGVTKATAEARDRGYVEVDGTRFENVEGFYSVVGDRNGISERYMYSATNIRLRELSLSYSFPSTLLAKTKVFTGIDVSLVGRNLFFFYKDAPFDPDAILSVGNTNQGVDVFGMPTTRNIGFNVKFTF | not soluble |
| TELTKCKVSHAIKDIDGYQGISLLEWACVLFHTSGYDTQAVVNDNGSTEYGLFQISDRFWCKSSEFPESENICGISCDKLLDDELDDDIACAKKILAIKGIDYWKAYKPMCSEKLEQWRCEKP | soluble |
| TKEGMLHYKAGTSYLGKEHWKTCFVVLSNGILYQYPDRTDVIPLLSVNMGGEQCGGCRRANTTDRPHAFQVILSDRPCLELSAESEAEMAEWMQHLCQAVSKGVIPQGVAPS | soluble |
| TKNWKWEMNFNIAKNSNKLVELADGVDSYSIYWTSFTTRLYNYAMVGKSLGVITGNTWERDDNGNIIFHELSASQKALYGGEYVPTYNQNTLDELGNFHPDFTGGFNTSISFKNFRLSANIDFSVGGQIVSYTNMWGSSSGILDKTAELNDRGVNVREPVSKGGGIHMTGVDQNGNKVDTYVNAKLYYTTASRVWEEWVYDRTYVKLREVSLSYVFPSQTLKKLNIGLSRASVAINASNPWLIYSACPNVDVSEIGMGYFEGGNAAATRSIGFTVNLAF | not soluble |
